Laboratory results from PMC3777949, “Dimerization Mediates Thermo-Adaptation, Substrate Affinity and Transglycosylation in a Highly Thermostable Maltogenic Amylase of Geobacillus thermoleovorans” (PLoS ONE, 2013).

Key:
[1] = substrate: OC[C@H]1O[C@@H]2O[C@H]3[C@H](O)[C@@H](O)[C@@H](O[C@H]4[C@H](O)[C@@H](O)[C@@H](O[C@H]5[C@H](O)[C@@H](O)[C@@H](O[C@H]6[C@H](O)[C@@H](O)[C@@H](O[C@H]7[C@H](O)[C@@H](O)[C@@H](O[C@H]1[C@H](O)[C@H]2O)O[C@@H]7CO)O[C@@H]6CO)O[C@@H]5CO)O[C@@H]4CO)O[C@@H]3CO; assay: DNSA reducing-sugar assay; type: biochemical, Geobacillus thermoleovorans; conditions: 100 mM sodium phosphate pH 7.0, 80°C, dimeric mutant
From the text: (§1) DNSA reducing-sugar assay on dimeric Gt-Mamy

[2] = substrate: OC[C@H]1O[C@@H]2O[C@H]3[C@H](O)[C@@H](O)[C@@H](O[C@H]4[C@H](O)[C@@H](O)[C@@H](O[C@H]5[C@H](O)[C@@H](O)[C@@H](O[C@H]6[C@H](O)[C@@H](O)[C@@H](O[C@H]7[C@H](O)[C@@H](O)[C@@H](O[C@H]8[C@H](O)[C@@H](O)[C@@H](O[C@H]1[C@H](O)[C@H]2O)O[C@@H]8CO)O[C@@H]7CO)O[C@@H]6CO)O[C@@H]5CO)O[C@@H]4CO)O[C@@H]3CO; assay: DNSA reducing-sugar assay; type: biochemical, Geobacillus thermoleovorans; conditions: 100 mM sodium phosphate pH 7.0, 80°C, dimeric mutant
From the text: as §1

B1: dimeric Gt-Mamy (Geobacillus thermoleovorans; D109E) (protein)
chain: MRKEAIHHRSTDNFAYAYDSETLHLRLQTKKHDVDHVELLFGDPYEWHDGAWQFQTMPMRKTGSDGLFDYWFAEVKPPYRRLRYGFVLRAGDEKLVYTEKGFYHEAPSEDTAYYFCFPFLHRVDLFQAPDWVKDTVWYQIFPERFANGNPAISPKGARPWGSEDPTPTSFFGGDLQGIIDHLDYLADLGITGIYLTPIFRAPSNHKYDTADYFEIDPHFGDKETLKTLVKRCHEKGIRVMLDAVFNHCGYEFAPFQDVLKNGAASRYKDWFHIREFPLQTEPRPNYDTFAFVPQMPKLNTAHPEVKRYLLDVATYWIREFDIDGWRLDVANEIDHEFWREFRQAVKALKPDVYILGEIWHDAMPWLRGDQFDAVMNYPFTDGALRFFAKEEISARQFADIMVRLLHSYPKHVNEAAFNLLGSHDTPRLLTICGDDVRKAKLLFLFQLTFTGSPCIYYGDEIGMTGGNDPECRKCMVWDPEKQNKELYEHVKQLIALRRQYRALRRGDVAFLAADDEANHLVYEKTDGNETVMIIINRSNEAAEIPMPIDARGKWLVNLLTGERFAAEAETLCVSLPPYGFVLYAVESW
notes: full length 588 aa, pCOLD I (Ni-NTA purified, tag kept), E. coli BL21(DE3); homodimer 145 kDa separated by Sephacryl S-200
With B1 the Km [1] was 0.21 mg/mL and the Km [2] was 0.60 mg/mL.
